Measured values taken from patent US9127040B2, “Regulation of sodium channels by PLUNC proteins” (The University of North Carolina at Chapel Hill, priority 2011, dated 2015).

What was measured:
[1] = target: T1, αβγENaC (Rattus norvegicus, UniProt P37089+P37090+P37091); assay: Amiloride-sensitive whole cell current, two electrode voltage clamp, Xenopus laevis oocytes expressing αβγENaC; type: cell-based; conditions: PLUNC family member co-expressed with α,β,γ ENaC
T1 construct: expressed in transfected cells; host or cells: Xenopus laevis oocytes (cRNA injection)
T1 sequence (P37089 1-698): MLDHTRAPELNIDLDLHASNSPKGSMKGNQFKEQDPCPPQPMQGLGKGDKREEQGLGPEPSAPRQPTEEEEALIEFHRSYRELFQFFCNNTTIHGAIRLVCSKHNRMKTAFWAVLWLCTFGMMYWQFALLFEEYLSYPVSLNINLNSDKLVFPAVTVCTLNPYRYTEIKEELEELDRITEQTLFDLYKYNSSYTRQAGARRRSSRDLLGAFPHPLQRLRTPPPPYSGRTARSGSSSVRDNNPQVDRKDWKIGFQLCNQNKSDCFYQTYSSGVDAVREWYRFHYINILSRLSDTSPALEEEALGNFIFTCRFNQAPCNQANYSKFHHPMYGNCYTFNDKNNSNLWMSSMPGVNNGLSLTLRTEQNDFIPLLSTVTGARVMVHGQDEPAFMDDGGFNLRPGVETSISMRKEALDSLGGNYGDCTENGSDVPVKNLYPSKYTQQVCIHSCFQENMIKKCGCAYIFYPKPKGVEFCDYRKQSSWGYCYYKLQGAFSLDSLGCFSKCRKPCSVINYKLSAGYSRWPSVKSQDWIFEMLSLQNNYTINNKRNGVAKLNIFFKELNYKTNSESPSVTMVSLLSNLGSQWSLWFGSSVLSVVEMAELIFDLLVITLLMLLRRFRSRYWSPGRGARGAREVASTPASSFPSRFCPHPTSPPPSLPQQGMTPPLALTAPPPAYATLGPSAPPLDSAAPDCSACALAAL
T1 sequence (P37090 1-638): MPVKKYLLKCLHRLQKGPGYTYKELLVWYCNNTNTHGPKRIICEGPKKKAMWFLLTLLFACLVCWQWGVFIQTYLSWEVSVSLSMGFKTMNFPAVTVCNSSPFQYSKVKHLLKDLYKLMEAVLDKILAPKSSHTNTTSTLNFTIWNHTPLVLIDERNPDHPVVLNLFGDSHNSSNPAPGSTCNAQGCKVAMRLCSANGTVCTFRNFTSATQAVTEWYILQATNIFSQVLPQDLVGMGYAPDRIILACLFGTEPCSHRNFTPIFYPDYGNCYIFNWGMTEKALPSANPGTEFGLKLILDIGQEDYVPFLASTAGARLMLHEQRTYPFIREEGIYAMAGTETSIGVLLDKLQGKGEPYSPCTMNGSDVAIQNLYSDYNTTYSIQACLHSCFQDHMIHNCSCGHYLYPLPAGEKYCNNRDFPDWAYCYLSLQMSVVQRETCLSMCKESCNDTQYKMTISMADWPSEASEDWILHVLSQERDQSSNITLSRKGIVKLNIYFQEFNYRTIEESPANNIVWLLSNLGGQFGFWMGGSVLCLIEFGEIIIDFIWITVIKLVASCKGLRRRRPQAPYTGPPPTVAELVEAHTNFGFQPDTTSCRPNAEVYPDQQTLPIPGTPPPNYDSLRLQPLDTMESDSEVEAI
T1 sequence (P37091 1-650): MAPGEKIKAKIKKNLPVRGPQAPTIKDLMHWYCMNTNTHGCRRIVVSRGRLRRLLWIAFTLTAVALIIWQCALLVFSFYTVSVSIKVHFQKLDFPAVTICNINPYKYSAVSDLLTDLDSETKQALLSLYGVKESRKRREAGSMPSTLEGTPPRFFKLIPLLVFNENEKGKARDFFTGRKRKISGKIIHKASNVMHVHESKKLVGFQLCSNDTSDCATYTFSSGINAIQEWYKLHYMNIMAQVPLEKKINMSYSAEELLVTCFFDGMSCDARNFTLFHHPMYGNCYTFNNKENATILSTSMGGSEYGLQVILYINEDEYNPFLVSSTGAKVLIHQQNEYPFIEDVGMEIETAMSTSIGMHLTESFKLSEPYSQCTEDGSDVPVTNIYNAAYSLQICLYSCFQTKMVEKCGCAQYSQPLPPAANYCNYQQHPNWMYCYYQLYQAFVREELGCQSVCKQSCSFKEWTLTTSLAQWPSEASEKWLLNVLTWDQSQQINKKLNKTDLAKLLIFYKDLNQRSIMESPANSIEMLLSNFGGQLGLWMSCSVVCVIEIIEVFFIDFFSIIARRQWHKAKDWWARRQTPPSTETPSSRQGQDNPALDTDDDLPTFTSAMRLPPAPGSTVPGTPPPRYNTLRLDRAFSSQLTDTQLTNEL
Experimental: Xenopus laevis oocytes were harvested and injected as described (Donaldson, et al., J. Biol. Chem. 277:8338 (2002)). Defolliculated healthy stage V-VI oocytes were injected with 0.3 ng of CRNA of each ENaC subunit. Injected oocytes were kept in modified Barth's saline (in mM: 88 NaCl, 1 KCl, 2.4 NaHCO3, 0.3 Ca(NO3)2, 0.41 CaCl2, 0.82 MgSO4, and 15 HEPES, adjusted to pH 7.35 with Tris). Oocytes were studied 24 hr after injection using the two electrode voltage clamp technique as previously described (Donaldson, et al., J. Biol. Chem. 277:8338 (2002)). Oocytes were clamped at a holding potential of −60 mV. The change in amiloride-sensitive whole cell current as an indicator of ENaC activity was determined by subtracting the corresponding current value measured in the presence of 10 μM amiloride from that measured before the application of amiloride. Where appropriate, oocytes were incubated with G22-A39 or ABC for 1 h prior to recording. In some experiments β-ENaC^S518C was used which forms ENaCs that are locked into an open probability near 1.0 by exposure to the sulthydral reactive reagent [2-(Trimethyl-ammonium)ethyl]methanethiosulphonate bromide (MTSET). MTSET was added at a concentration of 1 mM to the oocyte bath as previously described (Snyder, J. Clin. Invest. 105: 45 (2000)).

[2] = target: T2, ENaC (Homo sapiens, UniProt P37088+P51168+P51170); assay: Transepithelial voltage (PD), thin film conditions, human bronchial epithelial cultures; type: cell-based; conditions: 50 ng/ml, PD remeasured 45 min later, prewashed cultures
T2 construct: measured the transepithelial voltage under thin film conditions in human bronchial epithelial cultures; endogenous in cells; host or cells: primary human bronchial epithelial cultures (normal or CF donors)
T2 sequence (P37088 1-669): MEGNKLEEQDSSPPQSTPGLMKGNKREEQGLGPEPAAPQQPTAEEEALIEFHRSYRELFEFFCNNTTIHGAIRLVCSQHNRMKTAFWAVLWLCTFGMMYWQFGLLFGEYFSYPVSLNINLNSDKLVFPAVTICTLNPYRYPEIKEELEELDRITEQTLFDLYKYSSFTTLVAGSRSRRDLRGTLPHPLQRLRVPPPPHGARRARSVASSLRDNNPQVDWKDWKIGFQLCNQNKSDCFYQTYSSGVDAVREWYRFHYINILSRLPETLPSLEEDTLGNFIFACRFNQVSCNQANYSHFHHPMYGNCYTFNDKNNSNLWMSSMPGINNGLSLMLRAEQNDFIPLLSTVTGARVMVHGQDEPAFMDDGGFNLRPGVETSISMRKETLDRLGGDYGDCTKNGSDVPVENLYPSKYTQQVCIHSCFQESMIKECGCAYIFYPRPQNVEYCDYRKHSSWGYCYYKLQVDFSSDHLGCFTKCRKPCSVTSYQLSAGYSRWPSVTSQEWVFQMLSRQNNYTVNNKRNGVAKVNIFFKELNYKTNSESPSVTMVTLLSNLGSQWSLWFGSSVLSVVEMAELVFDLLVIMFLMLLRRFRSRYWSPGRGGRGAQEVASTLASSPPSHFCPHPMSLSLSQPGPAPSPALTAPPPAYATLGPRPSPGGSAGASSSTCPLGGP
T2 sequence (P51168 1-640): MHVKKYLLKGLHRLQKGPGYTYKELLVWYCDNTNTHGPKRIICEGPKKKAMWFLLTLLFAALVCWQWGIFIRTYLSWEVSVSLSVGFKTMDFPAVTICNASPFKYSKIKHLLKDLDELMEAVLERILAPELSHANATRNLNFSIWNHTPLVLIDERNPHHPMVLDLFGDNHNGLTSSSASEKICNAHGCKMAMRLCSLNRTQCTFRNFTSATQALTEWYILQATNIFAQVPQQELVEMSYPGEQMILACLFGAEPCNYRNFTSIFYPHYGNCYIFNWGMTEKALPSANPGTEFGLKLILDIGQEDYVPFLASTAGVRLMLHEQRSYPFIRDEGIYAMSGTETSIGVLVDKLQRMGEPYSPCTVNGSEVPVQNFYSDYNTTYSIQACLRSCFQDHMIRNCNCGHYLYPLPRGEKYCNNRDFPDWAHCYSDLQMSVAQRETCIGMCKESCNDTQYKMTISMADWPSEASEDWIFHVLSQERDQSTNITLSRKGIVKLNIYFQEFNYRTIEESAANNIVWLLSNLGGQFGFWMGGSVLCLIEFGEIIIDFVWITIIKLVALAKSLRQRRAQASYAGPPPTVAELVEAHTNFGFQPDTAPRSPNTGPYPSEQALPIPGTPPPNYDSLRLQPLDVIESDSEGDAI
T2 sequence (P51170 1-649): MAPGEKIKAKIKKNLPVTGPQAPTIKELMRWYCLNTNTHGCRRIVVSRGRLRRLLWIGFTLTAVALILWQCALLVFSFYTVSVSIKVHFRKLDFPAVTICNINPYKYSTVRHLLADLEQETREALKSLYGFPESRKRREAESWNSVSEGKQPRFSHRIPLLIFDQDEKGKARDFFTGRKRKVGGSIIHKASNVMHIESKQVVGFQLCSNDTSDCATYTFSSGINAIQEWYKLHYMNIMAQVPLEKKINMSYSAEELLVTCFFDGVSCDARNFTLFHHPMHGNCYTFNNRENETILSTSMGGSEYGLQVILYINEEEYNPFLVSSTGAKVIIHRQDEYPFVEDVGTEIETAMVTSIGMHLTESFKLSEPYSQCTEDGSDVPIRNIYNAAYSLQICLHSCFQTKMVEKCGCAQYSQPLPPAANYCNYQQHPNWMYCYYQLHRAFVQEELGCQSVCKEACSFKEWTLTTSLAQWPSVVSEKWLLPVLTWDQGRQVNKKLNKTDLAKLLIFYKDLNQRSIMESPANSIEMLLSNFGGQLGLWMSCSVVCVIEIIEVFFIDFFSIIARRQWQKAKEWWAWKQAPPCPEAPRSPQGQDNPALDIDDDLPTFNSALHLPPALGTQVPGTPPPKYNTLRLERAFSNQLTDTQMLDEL
Text: Tissue procurement and cell culture: Cells were harvested by enzymatic digestion from human bronchial tissue as previously described under a protocol approved by the UNC School of Medicine IRB (Tarran et al., J. Gen. Physiol. 127:591 (2006)). Human excess donor lungs and excised recipient lungs were obtained at the time of lung transplantation from portions of main stem or […] bronchi and cells were harvested by enzymatic digestion. All preparations were maintained at an air-liquid interface in a modified bronchial epithelial medium and used 2-5 weeks after seeding on 12 mm T-Clear inserts (Corning Costar) coated with human placental type VI collagen (Sigma). Phosphate buffered saline (PBS) was used for washing human bronchial epithelial culture mucosal surfaces. HBECs were maintained at an air-liquid interface in a modified bronchial epithelial growth medium (BEGM) with 5% CO2 at 37° C. and used 2-5 weeks after seeding on 12-mm T-clear inserts (Corning-Costar, Corning, N.Y., USA) (Randell, Methods Mol. Biol. 742:285 (2011)).
A single-barreled potential difference-sensing electrode was placed in the airway surface liquid by micromanipulator and used in conjunction with a macroelectrode in the serosal solution to measure transepithelial voltage using a voltmeter (World Precision Instruments). […] Transepithelial resistance was routinely measured using the EVOM system (WPI) as previously described (Tarran et al., J. Gen. Physiol. 127:591 (2006)).

[3] = test system: CF HBECs; conditions: 30 μM, ASL height over 24 h
Experimental: To label airway surface liquid, Ringer containing Texas Red-dextran (2 mg/ml; Invitrogen) was added to human bronchial epithelial culture mucosal surfaces. Perfluorocarbon was added mucosally to prevent evaporation of the airway surface liquid and the culture placed in a chamber containing 100 μl Ringer on the stage of a Leica SP5 confocal microscope with a 63× glycerol immersion objective. 5 points per culture were scanned and an average airway surface liquid height determined. For confocal microscopy human bronchial epithelial cultures were bathed serosally in a modified Ringer solution containing (mM): 116 NaCl, 10 NaHCO3, 5.1 KCl, 1.2 CaCl2, 1.2 MgCl2, 20 TES, 10 glucose, pH 7.4). At all other times, human bronchial epithelial cultures were maintained in a modified BEGM growth medium which contained 24 mM NaHCO3 gassed with 5% CO2.
To label the ASL, PBS containing 10 kDa Rhodamine dextran (0.2-2 mg/mL; Invitrogen, Carlsbad, Calif., USA) was added to HBEC mucosal surfaces as previously described (Tarran et al., Mol. Cell 8:149 (2001)). When added, peptides with or without 100 nM neutrophil elastase, 1 U/mL aprotinin, activated neutrophil supernatant (ANS) (Haynes et al., Am. J. Physiol. Heart Circ. Physiol. 294:H379 (2008)) or 10 μM sivelestat (Sigma-Aldrich, St Louis, Mo., USA) were added to the mucosal surface along with the Rhodamine dextran. Bumetanide (100 μM) was added to the serosal solution.

B1: SPLUNC2: human SPLUNC2 (SEQ ID NO:2), short PLUNC family protein co-expressed in oocytes (protein, listed as Homo sapiens)
chain: MLQLWKLVLLCGVLTGTSESLLDNLGNDLSNVVDKLEPVLHEGLETVDNTLKGILEKLKVDLGVLQKSSAWQLAKQKAQEAEKLLNNVISKLLPTNTDIFGLKISNSLILDVKAEPIDDGKGLNLSFPVTANVTVAGPIIGQIINLKASLDLLTAVTIETDPQTHQPVAVLGECASDPTSISLSLLDKHSQIINKFVNSVINTLKSTVSSLLQKEICPLIRIFIHSLDVNVIQQVVDNPQHKTQLQTLI
B1 was tested, and the “amiloride-sensitive ENaC current relative to control, co-expression” value [1] was “borderline significance”.

B2: recombinant SPLUNC1 that had been reduced with DTT: recombinant SPLUNC1 pretreated (reduced) with DTT (protein, UniProt Q9NP55 20-256, looked up)
BPI fold-containing family A …: QFGGLPVPLDQTLPLNVNPALPLSPTGLAGSLTNALSNGLLSGGLLGILENLPLLDILKPGGGTSGGLLGGLLGKVTSVIPGLNNIIDIKVTDPQLLELGLVQSPDGHRLYVTIPLGIKLQVNTPLVGASLLRLAVKLDITAEILAVRDKQERIHLVLGDCTHSPGSLQISLLDGLGPLPIQGLLDSLTGILNKVLPELVQGNVCPLVNEVLRGLDITLVHDIVNMLIHGLQFVIKV
modifications: DTT-reduced
In the case of B2, the “inhibition of transepithelial PD after DTT reduction” value [2] is reported as “abolished SPLUNC1 activity”.

B3: mutant SPLUNC1: SPLUNC1 with hinge domain mutated to alanines: K94A, N103A, N104A, K138A, Q140A, N142A, D193A (protein, UniProt Q9NP55 20-256, looked up, variant K94A N103A N104A K138A Q140A N142A D193A)
BPI fold-containing family A …: QFGGLPVPLDQTLPLNVNPALPLSPTGLAGSLTNALSNGLLSGGLLGILENLPLLDILKPGGGTSGGLLGGLLGAVTSVIPGLAAIIDIKVTDPQLLELGLVQSPDGHRLYVTIPLGIALAVATPLVGASLLRLAVKLDITAEILAVRDKQERIHLVLGDCTHSPGSLQISLLAGLGPLPIQGLLDSLTGILNKVLPELVQGNVCPLVNEVLRGLDITLVHDIVNMLIHGLQFVIKV
B3 was tested, and the “ASL absorption in CF cultures” value [3] was “significantly inhibited ASL absorption”.
